{"source": "paper PMC11978871", "about": "“PACT prevents aberrant activation of PKR by endogenous dsRNA without sequestration” (Nature Communications, 2024)", "binders": {"B1": {"name": "PACT DRBD3 (residues 235-313) (domain or fragment, UniProt O75569 235-313, looked up)", "chain": "SIPNTDYIQLLSEIAKEQGFNITYLDIDELSANGQYQCLAELSTSPITVCHGSGISCGNAQSDAAHNALQYLKIIAERK", "modifications": "isotope-labelled (15N, 13C, ~85% 2H; for the mixed sample 15N,2H-labelled and 13C-labelled protomers)", "notes": "PACT DRBD3, residues 235-313, in pET47b between BamHI and SalI; Homodimer in the NMR structure; also called PACT D3; source: E. coli BL21(DE3) in M9 minimal media, purified (Ni-NTA, SEC)"}, "B2": {"name": "42 bp dsRNA (dsRNA)", "RNA 1": "GGGAGAAUGUCGAAUGGGUAUUCCACAGACGAGAAUUCUCCC", "RNA 2": "GGGAGAAUUCUCGUCUGUGGAAUACCCAUUCGACAUUCUCCC"}, "B3": {"name": "62 bp dsRNA (dsRNA)", "RNA 1": "GGGAGAAUGUCGAAUGGGUAUUCCACAGACGAGAAUUUCCGCUAUCUCAUCUCGUGUCUCCC", "RNA 2": "GGGAGACACGAGAUGAGAUAGCGGAAAUUCUCGUCUGUGGAAUACCCAUUCGACAUUCUCCC"}}, "key": {"[1]": {"target": "the molecule itself", "test": "NMR structure; PACT D3 in 20 mM HEPES pH 7.5, 50 mM KCl, 2 mM DTT, 30 °C; inter-chain NOEs from a mixed-isotope sample (0.4 mM each protomer)"}, "[2]": {"target": "T1, PKR K296R (UniProt P19525 1-551, K296R)", "T1 sequence (P19525 whole entry K296R)": "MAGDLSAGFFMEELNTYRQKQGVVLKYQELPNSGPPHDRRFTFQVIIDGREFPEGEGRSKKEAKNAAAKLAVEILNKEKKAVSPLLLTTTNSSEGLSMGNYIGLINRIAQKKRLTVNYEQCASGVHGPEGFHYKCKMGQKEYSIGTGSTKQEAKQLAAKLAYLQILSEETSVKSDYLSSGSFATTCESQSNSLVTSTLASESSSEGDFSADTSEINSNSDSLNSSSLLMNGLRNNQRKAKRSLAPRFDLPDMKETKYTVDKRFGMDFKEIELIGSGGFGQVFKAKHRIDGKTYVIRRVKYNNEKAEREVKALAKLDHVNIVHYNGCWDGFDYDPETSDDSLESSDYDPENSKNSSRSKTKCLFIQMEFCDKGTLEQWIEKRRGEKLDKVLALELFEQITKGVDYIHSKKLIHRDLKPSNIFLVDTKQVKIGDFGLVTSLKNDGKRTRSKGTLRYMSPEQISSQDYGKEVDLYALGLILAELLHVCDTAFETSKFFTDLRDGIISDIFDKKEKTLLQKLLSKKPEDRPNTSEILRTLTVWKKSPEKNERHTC", "test": "SEC-MALS; 3 PKR per dsRNA; EMSA: 20 mM HEPES pH 7.5, 150 mM NaCl, 2 mM DTT, RT 15 min, 0.2 ng/ul 32P-112 bp dsRNA, 0-4000 nM protein, Bis-Tris native PAGE; smFRET buffer not in material", "conditions": "protein: recombinant; tags: pET29b; Cy5-labeled in smFRET; blunt"}, "[3]": {"target": "T1, PKR K296R", "test": "SEC-MALS; 4 PKR per dsRNA; EMSA: 20 mM HEPES pH 7.5, 150 mM NaCl, 2 mM DTT, RT 15 min, 0.2 ng/ul 32P-112 bp dsRNA, 0-4000 nM protein, Bis-Tris native PAGE; smFRET buffer not in material", "conditions": "protein: recombinant; tags: pET29b; Cy5-labeled in smFRET; blunt"}}, "data": [{"binder": "B1", "values": [{"measurement": "stoichiometry N", "setting": "[1]", "result": 2}]}, {"binder": "B2", "values": [{"measurement": "binding result", "setting": "[2]", "result": "binds"}]}, {"binder": "B3", "values": [{"measurement": "binding result", "setting": "[3]", "result": "binds"}]}]}
